Literature values, collected in PMC8864681.

Assays:
Asp67 = Asp67 (UniProt position 1513, LKPGVDYTITV)
Asp28 = Asp28 (UniProt position 50, MTDDIDEVRWE)
Asp26 = Asp26 (UniProt position 26, KLVVVDFSATW)
Asp14 = Asp14 (UniProt position 40, ERQHMDSSTSA)

For “Fibronectin, tenth type III cell adhesion module (FN10) (Homo sapiens)”, the pKa (Asp67) is given as 4.2.
For “T-cell surface antigen CD2 (cell adhesion molecule CD2) (Rattus rattus as printed ('black rat'); the PDB 1HNG source is commonly annotated as rat (Rattus norvegicus))”, the pKa (Asp28) is listed as 3.57.
In the case of “Thioredoxin (recombinant human) (Homo sapiens)”, the pKa (Asp26) is given as 9.9.
For “Ribonuclease A (pancreatic ribonuclease) (Bos taurus)”, the pKa (Asp14) is given as 2.0.
